Experimental data taken from patent US20180037631A1 (Bristol-Myers Squibb, published 2018).
Several values for one entry are separate records, joined by “and”; a condition that tells them apart may be missing. Equal values may be shown once. Read-outs that look alike come from different tables or passages of the source.

B1: E1-GS10-I1, His-tagged, non-pegylated (designed binder)
chain: MGVSDVPRDLEVVAATPTSLLISWVAGAEDYQYYRITYGETGGNSPVQEFTVPHDLVTATISGLKPGVDYTITVYAVTDMMHVEYTEHPISINYRTEIDKGSGSGSGSGSGSGSGSGSGSVSDVPRDLEVVAATPTSLLISWSARLKVARYYRITYGETGGNSPVQEFTVPKNVYTATISGLKPGVDYTITVYAVTRFRDYQPISINYRTEIDKPSQHHHHHH
notes: bispecific EGFR/IGF-IR tandem of two 10Fn3 domains
B2: E1 EGFR 10Fn3-based binder, His-tagged monomer (designed binder)
chain: MGVSDVPRDLEVVAATPTSLLISWVAGAEDYQYYRITYGETGGNSPVQEFTVPHDLVTATISGLKPGVDYTITVYAVTDMMHVEYTEHPISINYRTEIDKPSQHHHHHH
B3: E3 EGFR 10Fn3-based binder, His-tagged monomer (designed binder)
chain: MGVSDVPRDLEVVAATPTSLLISWLPGKLRYQYYRITYGETGGNSPVQEFTVPHDLRTATISGLKPGVDYTITVYAVTNMMHVEYSEYPISINYRTEIDKPSQHHHHHH
B4: E4-GS10-I1 pegylated, His-tagged (designed binder)
chain: MGVSDVPRDLEVVAATPTSLLISWHERDGSRQYYRITYGETGGNSPVQEFTVPGGVRTATISGLKPGVDYTITVYAVTDYFNPTTHEYIYQTTPISINYRTEIDKGSGSGSGSGSGSGSGSGSGSVSDVPRDLEVVAATPTSLLISWSARLKVARYYRITYGETGGNSPVQEFTVPKNVYTATISGLKPGVDYTITVYAVTRFRDYQPISINYRTEIDKPCQHHHHHH
modifications: 40 kDa branched PEG on the Cys of the C-terminal Cys tail
notes: also called E4-GS10-I1 (with Peg)
B5: I1-GS10-E4 pegylated, His-tagged (designed binder)
chain: MGVSDVPRDLEVVAATPTSLLISWSARLKVARYYRITYGETGGNSPVQEFTVPKNVYTATISGLKPGVDYTITVYAVTRFRDYQPISINYRTEIDKGSGSGSGSGSGSGSGSGSGSVSDVPRDLEVVAATPTSLLISWHERDGSRQYYRITYGETGGNSPVQEFTVPGGVRTATISGLKPGVDYTITVYAVTDYFNPTTHEYIYQTTPISINYRTEIDKPCQHHHHHH
modifications: 40 kDa branched PEG on the Cys of the C-terminal Cys tail
B6: I1-GS10-E1, His-tagged, non-pegylated (designed binder)
chain: MGVSDVPRDLEVVAATPTSLLISWSARLKVARYYRITYGETGGNSPVQEFTVPKNVYTATISGLKPGVDYTITVYAVTRFRDYQPISINYRTEIDKGSGSGSGSGSGSGSGSGSGSVSDVPRDLEVVAATPTSLLISWVAGAEDYQYYRITYGETGGNSPVQEFTVPHDLVTATISGLKPGVDYTITVYAVTDMMHVEYTEHPISINYRTEIDKPSQHHHHHH

Experiments:
[1] = biological target: T1, Recombinant human EGFR-Fc (aa 1-645 of the extracellular domain of human EGFR fused to human Fc) (human, UniProt P00533 25-645)
T1 construct: range 1-645; bought from R&D Systems; also called EGFR645-Fc; EGFR-Fc (HER-1); not shown: human Fc

[2] = biological target: T2, EGFR on the surface of human tumour cells (A431, H292) (human, UniProt P00533 25-1210)
T2 construct: whole, on cells; also called EGF receptor

[3] = biological target: T2, EGFR on the surface of human tumour …; assay: cell-based or functional assay
[4] = biological target: T3, IGF-IR on human tumour cells (H292, MCF-7, RH41) (human, UniProt P08069 31-1367); assay: cell-based or functional assay
[5] = biological target: T1, Recombinant human EGFR-Fc (aa 1-645 of …); remark: listed apart in the source
[6] = biological target: T2, EGFR on the surface of human tumour …; remark: listed apart in the source
[7] = biological target: T2, EGFR on the surface of human tumour …; assay: cell-based or functional assay; remark: listed apart in the source
[8] = biological target: T3, IGF-IR on human tumour cells (H292, …); assay: cell-based or functional assay; remark: listed apart in the source
[9] = biological target: T4, IGF1R-Fc (extracellular domain of human IGF1R aa 1-932 fused to hinge and constant regions of human IgG1) (human, UniProt P08069 31-932)
T4 construct: range 1-932; made in house by transient transfection, purified on Protein A; also called IGF-IR-Fc; not shown: hinge and constant regions of human IgG1

[10] = biological target: T4, IGF1R-Fc (extracellular domain of human …); remark: listed apart in the source
[11] = biological target: T1, Recombinant human EGFR-Fc (aa 1-645 of …); assay: BIAcore
[12] = biological target: T2, EGFR on the surface of human tumour …; assay: cell-based or functional assay; remark: listed apart in the source
[13] = biological target: T2, EGFR on the surface of human tumour …; assay: cell-based or functional assay; remark: listed apart in the source
[14] = biological target: T3, IGF-IR on human tumour cells (H292, …); assay: cell-based or functional assay; remark: listed apart in the source
[15] = biological target: T1, Recombinant human EGFR-Fc (aa 1-645 of …); assay: SPR Biacore
[16] = biological target: T2, EGFR on the surface of human tumour …; remark: listed apart in the source
[17] = biological target: T2, EGFR on the surface of human tumour …; assay: cell-based or functional assay; remark: listed apart in the source
[18] = biological target: T2, EGFR on the surface of human tumour …; remark: listed apart in the source
[19] = biological target: T2, EGFR on the surface of human tumour …; assay: cell-based or functional assay; remark: listed apart in the source
[20] = biological target: T1, Recombinant human EGFR-Fc (aa 1-645 of …); remark: listed apart in the source
[21] = biological target: T1, Recombinant human EGFR-Fc (aa 1-645 of …); remark: listed apart in the source
[22] = biological target: T1, Recombinant human EGFR-Fc (aa 1-645 of …); remark: listed apart in the source
[23] = biological target: T2, EGFR on the surface of human tumour …; assay: cell-based or functional assay; remark: listed apart in the source
[24] = biological target: T3, IGF-IR on human tumour cells (H292, …); assay: cell-based or functional assay; remark: listed apart in the source
[25] = biological target: T2, EGFR on the surface of human tumour …; assay: cell-based or functional assay; remark: listed apart in the source
[26] = biological target: T4, IGF1R-Fc (extracellular domain of human …); remark: listed apart in the source
monkey EGFR = monkey EGFR (monkey); assay: SPR Biacore
mouse EGFR = mouse EGFR (mouse, UniProt Q01279 25-647, limits assumed); assay: SPR Biacore
rat EGFR = rat EGFR (rat, UniProt A0ABK0LZB0 35-1214); assay: SPR Biacore
[27] = biological target: T1, Recombinant human EGFR-Fc (aa 1-645 of …); remark: listed apart in the source
[28] = biological target: T2, EGFR on the surface of human tumour …; remark: listed apart in the source
[29] = biological target: T3, IGF-IR on human tumour cells (H292, …); assay: cell-based or functional assay; remark: listed apart in the source

Binder	Kd [1]	koff [1]	kon [1]	IC50 [2]	inhibition of EGF-stimulated EGFR phosphorylation (Y1068), H292 cells, ELISA, IC50 [7]	inhibition of IGF1-stimulated IGF1R phosphorylation (Y1131), H292 cells, ELISA, IC50 [8]	Kd [10]	koff [10]	kon [10]	Kd [11]	Inhibition of H292 Proliferation IC50 [12]	Inhibition of PERK IC50 [12]	Inhibition of pEGFR IC50 [12]	A431 pEGFR IC50 (In-Cell Western) [13]	A431 pERK IC50 (In-Cell Western) [13]	H292 pEGFR IC50 (ELISA) [13]	H292 pIGF-IR IC50 (ELISA) [14]	Kd [15]	IC50 [16]	IC50, EGF-stimulated EGFR phosphorylation, H292 cells, ELISA [17]	other results
B1	10.2 nM and 7.53 nM	0.000389 s⁻¹ and 0.000474 s⁻¹	38200 M⁻¹ s⁻¹ and 62900 M⁻¹ s⁻¹	14.6 nM	20 nM	4 nM	0.66 nM	0.000338 s⁻¹	513000 M⁻¹ s⁻¹	–	–	–	–	–	–	–	–	–	–	–	A431 pEGFR IC50 (In-Cell Western) [3]: 36 nM; A431 pERK IC50 (In-Cell Western) [3]: 51 nM; H292 pEGFR IC50 (ELISA) [3]: 30 nM; H292 pIGF-IR IC50 (ELISA) [4]: 1 nM; Kd [5]: 3.8 nM; IC50 [6]: 51 nM; inhibition of RH41 cell proliferation, IC50 [8]: 9 nM; Kd [9]: 0.8 nM
B2	9.92 nM and 13.2 nM	0.00118 s⁻¹ and 0.00189 s⁻¹	119000 M⁻¹ s⁻¹ and 143000 M⁻¹ s⁻¹	14 nM	7 nM	> 3500 nM	–	–	–	14.6 nM	18 nM	17 nM	18 nM	24 nM	13 nM	9 nM	> 3.4 µM	9.92 nM	15.9 nM	8 nM	IC50 [18]: 0.53 nM; % inhibition of EGFR phosphorylation at 100 nM binder, cell-based assay [19]: 85.9%
B3	–	–	–	–	–	–	–	–	–	0.72 nM	26 nM	97 nM	11 nM	15 nM	11 nM	22 nM	> 7 µM	3.4 nM	4.75 nM	21 nM	Kd [20]: 1.4 nM; koff [21]: 0.000398 s⁻¹; kon [21]: 283000 M⁻¹ s⁻¹; IC50, EGF-stimulated EGFR phosphorylation, A431 cells, In Cell Western [17]: 14 nM; IC50 [18]: 0.87 nM; Kd [22]: 3.4 nM; % inhibition of EGFR phosphorylation at 100 nM binder, cell-based assay [19]: 87.5%
B4	–	–	–	–	–	–	–	–	–	–	–	–	–	–	–	–	–	–	–	–	IC50, EGF-induced EGFR phosphorylation, A431 cells, In Cell Western [23]: 12 nM; IC50, EGF-induced ERK phosphorylation, A431 cells, In Cell Western [23]: 12 nM; IC50, EGF-stimulated EGFR phosphorylation, H292 cells, ELISA [23]: 1.3 nM; IC50, IGF1-stimulated IGFR phosphorylation, H292 cells, ELISA [24]: 0.4 nM; H292 colony formation assay IC50 [25]: 5 nM; Kd [26]: 0.77 nM; Kd (monkey EGFR): 5.7 nM; Kd (mouse EGFR): 6.9 nM; Kd (rat EGFR): 5.6 nM; Kd [27]: 4.77 nM; IC50 [28]: 19.5 nM
B5	–	–	–	–	–	–	–	–	–	–	–	–	–	–	–	–	–	–	–	–	IC50, EGF-induced EGFR phosphorylation, A431 cells, In Cell Western [23]: 12 nM; IC50, EGF-induced ERK phosphorylation, A431 cells, In Cell Western [23]: 13 nM; IC50, EGF-stimulated EGFR phosphorylation, H292 cells, ELISA [23]: 4 nM; IC50, IGF1-stimulated IGFR phosphorylation, H292 cells, ELISA [24]: 0.2 nM; H292 colony formation assay IC50 [25]: 6 nM; Kd [26]: 0.46 nM; Kd (monkey EGFR): 3.9 nM; Kd (mouse EGFR): 5.5 nM; Kd (rat EGFR): 3.7 nM; Kd [27]: 3.63 nM; IC50 [28]: 38.1 nM
B6	4.8 nM and 10.3 nM	0.000603 s⁻¹ and 0.000425 s⁻¹	–	7 nM	–	–	0.27 nM	0.000398 s⁻¹	1.47e+06 M⁻¹ s⁻¹	–	–	–	–	–	–	–	–	–	–	42 nM	IC50, EGF-stimulated EGFR phosphorylation, A431 cells, In Cell Western [17]: 93 nM; IC50, EGF-stimulated ERK phosphorylation, A431 cells, In Cell Western [17]: 99 nM; IC50, IGF1-stimulated IGFR phosphorylation, H292 cells, ELISA [29]: 1 nM
